# Reference: the supplement of paper PMC7877785
# ± gives the uncertainty stated by the source.
# Assay: self-splicing fitness, log relative to wild type (ln ratio); higher = more splicing; Tetrahymena group I intron in knt gene, E. coli kanamycin selection, DiMSum; sequences stand for … in CUCUCU…GGAGGGAAAAGUUAUCAGGCAUGCACCUGGUAGCUAGUCUUUAAACCAAUAGAUUGCAUCGGUUUAAAAGGCAAGACCGUCAAAUUGCGGGAAAGGGGUCAACAGCCGUUCAGUACCAAGUCUCAGGGGAAACUUUGAGAUGGCCUUGCAAAGGGUAUGGUAAUAAGCUGACGGACAUGGUCCUAACCACGCAGCCAAGUCCUAAGUCAACAGAUCUUCUGUUGAUAUGGAUGCAGUUCACAGACUAAAUGUCGGUCGGGGAAGAUGUAUUCUUCUCAUAAGAUAUAGUCGGACCUCUCCUUAAUGGGAGCUAGCGGAUGAAGUGAUGCAACACUGGAGCCGCUGGGAACUAAUUUGUAUGCGAAAGUAUAUUGAUUAGUUUUGGAGUACUCGUGGUCG
# How it was run: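 A randomised library covering all eight P1ex-region intron nucleotides was built with the intron in the knt kanamycin-resistance gene on pET-22b(+) and held in E. coli BL21(DE3). Cells were grown overnight at 37°C or 30°C on LB agar, with or without 25 μg/mL kanamycin, plus 100 μg/mL carbenicillin, 50 μM IPTG and 0.2% rhamnose, and pooled colonies were amplicon-sequenced on an Illumina HiSeq 2500. DiMSum fitness is the error-weighted combination of wild-type-normalised replicate fold changes, kanamycin versus none.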
Sequence,self-splicing fitness (ln) (30 °C),self-splicing fitness (ln) (37 °C)
UACAAGCAAUAUUACGUGGG,-3.82 ± 0.21,-3.3 ± 0.24
UACAAGCAAUAUUACGUGGU,-3.29 ± 0.14,-3.27 ± 0.17
UACCAGCAAUAUUACGAAUU,-2.55 ± 0.17,-1.96 ± 0.2
UACCAGCAAUAUUACGACUA,-0.413 ± 0.078,0.638 ± 0.098
UACCAGCAAUAUUACGCCUG,-1.3 ± 0.14,-1.21 ± 0.19
UACCAGCAAUAUUACGCGAA,-0.474 ± 0.063,-0.386 ± 0.086
UACCAGCAAUAUUACGCGUG,0.016 ± 0.081,0.0464 ± 0.099
UACCAGCAAUAUUACGCUGA,-2.43 ± 0.15,-1.21 ± 0.11
UACCAGCAAUAUUACGGAAG,-3.5 ± 0.24,-1.57 ± 0.16
UACCAGCAAUAUUACGGCCC,-1.19 ± 0.14,-0.219 ± 0.26
UACCAGCAAUAUUACGGGGG,-2.5 ± 0.14,-1.77 ± 0.13
UACCAGCAAUAUUACGGUCC,-1.55 ± 0.11,-0.0163 ± 0.11
UACCAGCAAUAUUACGUAGC,-2.38 ± 0.11,-1.72 ± 0.14
UACCAGCAAUAUUACGUAUC,-2.55 ± 0.15,-0.118 ± 0.12
UACCAGCAAUAUUACGUCCU,-1.79 ± 0.1,-1.34 ± 0.14
UACCAGCAAUAUUACGUCGA,-0.651 ± 0.073,-0.0658 ± 0.085
UACCAGCAAUAUUACGUCGG,-2.64 ± 0.12,-1.91 ± 0.14
UACCAGCAAUAUUACGUGGC,-4.31 ± 0.22,-3.66 ± 0.2
UACCAGCAAUAUUACGUGUC,-2.04 ± 0.1,-2.23 ± 0.15
UACCAGCAAUAUUACGUGUU,-3.72 ± 0.11,-1.38 ± 0.078
UACCAGCAAUAUUACGUUCC,-2.79 ± 0.19,-1.77 ± 0.22
UACCAGCAAUAUUACGUUUA,-0.529 ± 0.052,-0.264 ± 0.064
UACGAGCAAUAUUACGACCU,-2.35 ± 0.27,-1.82 ± 0.5
UACGAGCAAUAUUACGAGUG,-1.86 ± 0.07,-1.74 ± 0.1
UACGAGCAAUAUUACGCACU,-2.42 ± 0.29,-2.13 ± 0.28

Sequence,self-splicing fitness (ln) (30 °C),self-splicing fitness (ln) (37 °C)
UACGAGCAAUAUUACGCGUG,-4.43 ± 0.3,-2.7 ± 0.21
UACGAGCAAUAUUACGCUAG,,-1.7 ± 0.46
UACGAGCAAUAUUACGGAAU,-2.71 ± 0.27,-2.76 ± 0.34
UACGAGCAAUAUUACGGCCU,-3.35 ± 0.18,-3.77 ± 0.46
UACGAGCAAUAUUACGGCGC,-2.53 ± 0.29,-2.4 ± 0.46
UACGAGCAAUAUUACGGGGA,-2.87 ± 0.29,-1.69 ± 0.19
UACGAGCAAUAUUACGGGGC,,-3.34 ± 0.3
UACGAGCAAUAUUACGGUAC,-3.89 ± 0.3,-2.76 ± 0.34
UACGAGCAAUAUUACGGUCU,-4.06 ± 0.34,-3.1 ± 0.4
UACGAGCAAUAUUACGGUUC,-4.18 ± 0.19,-2.5 ± 0.15
UACGAGCAAUAUUACGUACG,-3.76 ± 0.23,-2.34 ± 0.18
UACGAGCAAUAUUACGUAGG,-3.41 ± 0.31,-2.57 ± 0.28
UACGAGCAAUAUUACGUAUA,-2.7 ± 0.2,-0.839 ± 0.14
UACGAGCAAUAUUACGUCGU,-4.08 ± 0.33,
UACGAGCAAUAUUACGUGAC,-4.06 ± 0.33,-1.76 ± 0.27
UACGAGCAAUAUUACGUGUU,-3.63 ± 0.19,-3.63 ± 0.29
UACGAGCAAUAUUACGUUUA,-2.32 ± 0.12,-1.79 ± 0.12
UACUAGCAAUAUUACGAACA,-0.0493 ± 0.19,-0.55 ± 0.15
UACUAGCAAUAUUACGACAC,-2.53 ± 0.2,-0.604 ± 0.15
UACUAGCAAUAUUACGAGAC,,-1.56 ± 0.25
UACUAGCAAUAUUACGAGGG,-2.3 ± 0.13,-2.52 ± 0.17
UACUAGCAAUAUUACGAUAU,-3.18 ± 0.17,-2.36 ± 0.17
UACUAGCAAUAUUACGAUGA,-0.469 ± 0.13,-0.321 ± 0.11
UACUAGCAAUAUUACGAUGG,-0.657 ± 0.12,-0.406 ± 0.2
UACUAGCAAUAUUACGCAAU,-3.82 ± 0.23,-1.63 ± 0.16

Sequence,self-splicing fitness (ln) (30 °C),self-splicing fitness (ln) (37 °C)
UACUAGCAAUAUUACGCAGU,-3.26 ± 0.35,-3.09 ± 0.34
UACUAGCAAUAUUACGCCCA,-0.901 ± 0.21,0.802 ± 0.33
UACUAGCAAUAUUACGCCCC,-2.19 ± 0.41,-1.18 ± 0.43
UACUAGCAAUAUUACGGAGU,-3.43 ± 0.24,-3.25 ± 0.29
UACUAGCAAUAUUACGGCAU,-1.36 ± 0.095,-1.28 ± 0.099
UACUAGCAAUAUUACGGCGG,-0.694 ± 0.11,0.0905 ± 0.13
UACUAGCAAUAUUACGGCGU,-2.16 ± 0.11,-0.707 ± 0.12
UACUAGCAAUAUUACGGCUA,-1.58 ± 0.12,-0.671 ± 0.099
UACUAGCAAUAUUACGGGAU,-3.17 ± 0.17,-1.43 ± 0.13
UACUAGCAAUAUUACGGGUC,-2.68 ± 0.21,-2.29 ± 0.26
UACUAGCAAUAUUACGGGUG,-0.974 ± 0.077,-0.232 ± 0.075
UACUAGCAAUAUUACGGGUU,-2.34 ± 0.18,-1.78 ± 0.16
UACUAGCAAUAUUACGGUAC,-3.01 ± 0.18,-2.53 ± 0.23
UACUAGCAAUAUUACGGUGG,-2.1 ± 0.09,-1 ± 0.098
UACUAGCAAUAUUACGUGCA,-1.01 ± 0.073,0.166 ± 0.09
UACUAGCAAUAUUACGUGCC,-1.33 ± 0.14,-2.6 ± 0.26
UACUAGCAAUAUUACGUGCU,-3.85 ± 0.32,-3.06 ± 0.27
UACUAGCAAUAUUACGUUCG,-0.992 ± 0.077,-0.484 ± 0.094
UACUAGCAAUAUUACGUUCU,-2.47 ± 0.25,-1.03 ± 0.19
UACUAGCAAUAUUACGUUUC,-4.15 ± 0.33,-2.53 ± 0.23
UACUAGCAAUAUUACGUUUG,-3.28 ± 0.18,-2.21 ± 0.29
UAGAAGCAAUAUUACGAAGG,-2.9 ± 0.17,-1.82 ± 0.39
UAGAAGCAAUAUUACGACGA,-0.144 ± 0.1,-0.0918 ± 0.1
UAGAAGCAAUAUUACGACUG,-0.418 ± 0.083,-0.0265 ± 0.1
UAGAAGCAAUAUUACGCCUC,-2.88 ± 0.5,

Sequence,self-splicing fitness (ln) (30 °C),self-splicing fitness (ln) (37 °C)
UAGAAGCAAUAUUACGCGGG,-2.4 ± 0.14,-1.1 ± 0.13
UAGAAGCAAUAUUACGCGUU,-2.89 ± 0.15,-1.41 ± 0.13
UAGAAGCAAUAUUACGGGAA,-1.96 ± 0.25,-2.3 ± 0.29
UAGAAGCAAUAUUACGGGAU,-4.15 ± 0.23,-2.36 ± 0.18
UAGAAGCAAUAUUACGGGCC,,-1.9 ± 0.31
UAGAAGCAAUAUUACGGGUG,-0.989 ± 0.057,-0.365 ± 0.078
UAGAAGCAAUAUUACGGUCU,-0.542 ± 0.11,0.318 ± 0.11
UAGAAGCAAUAUUACGUAAU,-3.43 ± 0.22,-1.39 ± 0.18
UAGAAGCAAUAUUACGUAGA,-2.4 ± 0.095,-1.79 ± 0.11
UAGAAGCAAUAUUACGUCUC,-1.21 ± 0.11,-0.794 ± 0.1
UAGAAGCAAUAUUACGUGCU,-2.8 ± 0.21,-2.42 ± 0.24
UAGAAGCAAUAUUACGUUAC,-3.73 ± 0.32,-2.79 ± 0.27
UAGAAGCAAUAUUACGUUGC,-4.3 ± 0.27,-2.82 ± 0.24
UAGCAGCAAUAUUACGAAAA,-2.56 ± 0.25,-1.27 ± 0.2
UAGCAGCAAUAUUACGAGAU,-3.24 ± 0.2,-3.18 ± 0.28
UAGCAGCAAUAUUACGAUUC,-3.06 ± 0.14,-2.94 ± 0.15
UAGCAGCAAUAUUACGCAAA,-1.89 ± 0.18,-1.76 ± 0.17
UAGCAGCAAUAUUACGCAAG,-3.04 ± 0.23,-1.76 ± 0.21
UAGCAGCAAUAUUACGCACU,-0.419 ± 0.086,0.238 ± 0.1
UAGCAGCAAUAUUACGCAUC,-4.15 ± 0.47,-3.39 ± 0.26
UAGCAGCAAUAUUACGCCAC,-3.82 ± 0.39,-1.45 ± 0.3
UAGCAGCAAUAUUACGCCCU,-0.738 ± 0.087,-0.863 ± 0.11
